Measurements published in US20250302974A1, “LECTIN-DRUG CONJUGATES” (UNICHEM LABORATORIES LIMITED, priority 2021, published 2025).

Key:
PBMC Normal = test: Cytotoxic effect by MTT assay, 48 h; settings: for Percent cytotoxicity wrt control: PBMC, 48 h
Procedure: (§1) Cells were treated with Test Items at various concentrations (0.0001 μM-10 μM) for 48 h. The cells corresponding to Positive Control group were treated with Doxorubicin at a concentration ranging from 0.1 μM-100 μM. The Untreated cells were used as Control. After 48 h of incubation, the effect of Test Items on cytotoxicity of cells was determined by MTT assay, the plates were taken out and 20 μl of 5 mg/m1 of MTT 3-(4,5-dimethythiazol-2-yl)-2,5-diphenyl tetrazolium bromide solution was added to all the wells. Cells were incubated for 3 h at 37° C. The supernatant was aspirated. 150 μl of DMSO was added to each well to dissolve formazan crystals. The absorbance of each well was then read at 540 nm using Synergy HT micro plate reader.
(§2) The % Cytotoxicity was calculated using the formula:
(§3) Where, X=Absorbance of cells treated with Test Item; R=Absorbance of Control cells (Untreated cells maintained in growth medium only).

[1] = Glycan binding study, N-Glycan array containing 100 glycans
HT29 Colon = test: Cytotoxic effect by MTT assay, 48 h; settings: for Percent cytotoxicity wrt control: 48 h
Procedure: as §1, §2, §3
(§4) Selectivity Index was calculated using the formula:
(§5) SI=IC50 in Normal cell/IC50 in cancer cell.
(§6) Activity scores of the Selective Index values were categorized as: • Not selective (SI value ≤1) • Moderately selective (1<SI value <5) • Selective (SI value ≥5)

MG-63 Bone = test: Cytotoxic effect by MTT assay, 48 h; settings: for Percent cytotoxicity wrt control: 48 h
Procedure: as §1, §2, §3, §4, §5, §6

PANC-1 Pancreatic = test: Cytotoxic effect by MTT assay, 48 h; settings: for Percent cytotoxicity wrt control: 48 h
Procedure: as §1, §2, §3, §4, §5, §6

PA-1 Ovary = test: Cytotoxic effect by MTT assay, 48 h; settings: for Percent cytotoxicity wrt control: 48 h
Procedure: as §1, §2, §3, §4, §5, §6

AGS Stomach = test: Cytotoxic effect by MTT assay, 48 h; settings: for Percent cytotoxicity wrt control: AGS, 48 h
Procedure: as §1, §2, §3, §4, §5, §6

KB Cervix = test: Cytotoxic effect by MTT assay, 48 h; settings: for Percent cytotoxicity wrt control: KB, 48 h
Procedure: as §1, §2, §3, §4, §5, §6

MDA-MB-231 Breast = test: Cytotoxic effect by MTT assay, 48 h; settings: for Percent cytotoxicity wrt control: 48 h
Procedure: as §1, §2, §3, §4, §5, §6

T24 Bladder = test: Cytotoxic effect by MTT assay, 48 h; settings: for Percent cytotoxicity wrt control: 48 h
Procedure: as §1, §2, §3, §4, §5, §6

U251 MG Brain = test: Cytotoxic effect by MTT assay, 48 h; settings: for Percent cytotoxicity wrt control: U251 MG, 48 h
Procedure: as §1, §2, §3, §4, §5, §6

[2] = test system: ovarian cancer cell line (PA-1); test: Cytotoxicity assay, cell titer glow luminescence, 72 h; assay type: cell-based
Procedure: (§7) T-24 Cell line were cultured in McCoy's 5a Medium Modified supplemented with 10% FBS and the PA-1 Cell line was cultured in EMEM Media supplemented with 10% FBS. The assay was performed by plating 5,000 cells/well and incubated at 37° C. overnight. […] Each concentration was added in triplicate and media-only wells used as a control. After incubation for 72 h cell titer glow (Promega) reagent (50 μL) was added to each well and the plates shaken for 5 mins and the luminescence was recorded. Percent viability was determined by dividing luminescence of the treated well by the non-treated well and multiplying by 100. Data was analysed using non-linear regression with a logarithmic scale.
(§8) 5,000 cells/well were plated and incubated at 37° C. overnight. Conjugates/vehicle control dilutions were made in respective media and added to cells. Volume added: 50 uL to each well. Starting treatment concentration was 1 uM for Conjugate of formula 16 and 18, and control SEQ ID NO: 5 alone and 10% for vehicle control (1×PBS with 20% DMA) and then diluted 10-fold down for a total of 11 treatment dilutions. Each concentration was analysed in triplicates. Media-only wells was used as a control to calculate percent viability. Cell titer glow reagent (volume: 50 uL) was added to each well, the plate was shaken for 5 mins and the luminescence was recorded. Drug Treatment Time: 72 hours. Percent viability was calculated by dividing the luminescence signal obtained for each treated well by the untreated well (media-only control) and multiplying by 100.

[3] = test system: human urinary bladder cancer cell line (T-24); test: as above; assay type: cell-based
Procedure: as §7, §8

B1: SEQ ID NO: 2: recombinant variant of the S. rolfsii lectin amino acid sequence (reported as Rec-2 in WO2010/095143) (protein)
chain: TYKITVRVYQTNPDAFFHPVEKTVWKYANGGTWTITDDQHVLTMGGSGTSGTLRFHADNGESFTATFGVHNYKRWCDIVTNLAADETGMVINQQYYSQKNREEARERQLSNYQVKNAKGRNFQIVYTEAEGNDLHANLIIG
PBMC Normal; 0.0001 μM
  Percent cytotoxicity wrt control: −7.4%
PBMC Normal; 0.001 μM
  Percent cytotoxicity wrt control: 19.9%
PBMC Normal; 0.01 μM
  Percent cytotoxicity wrt control: 24%
PBMC Normal; 0.1 μM
  Percent cytotoxicity wrt control: 44.9%
PBMC Normal; 1 μM
  Percent cytotoxicity wrt control: 49.5%
PBMC Normal; 10 μM
  Percent cytotoxicity wrt control: 43.4%
PBMC Normal; read-out: IC50 Values, PBMC Normal, after 48 h of treatment
  IC50: > 10 µM
[1]
  binding to N-glycans (in words): specific binding
HT29 Colon; HT29, 0.0001 μM
  Percent cytotoxicity wrt control: 14%
HT29 Colon; HT29, 0.001 μM
  Percent cytotoxicity wrt control: 16.6%
HT29 Colon; HT29, 0.01 μM
  Percent cytotoxicity wrt control: 22.5%
HT29 Colon; HT29, 0.1 μM
  Percent cytotoxicity wrt control: 24.7%
HT29 Colon; HT29, 1 μM
  Percent cytotoxicity wrt control: 35.4%
HT29 Colon; HT29, 10 μM
  Percent cytotoxicity wrt control: 54.1%
HT29 Colon; read-out: IC50 Values, HT29 Colon, after 48 h of treatment
  IC50: 9.39 µM
MG-63 Bone; MG-63, 0.0001 μM
  Percent cytotoxicity wrt control: 27%
MG-63 Bone; MG-63, 0.001 μM
  Percent cytotoxicity wrt control: 38.7%
MG-63 Bone; MG-63, 0.01 μM
  Percent cytotoxicity wrt control: 50.4%
MG-63 Bone; MG-63, 0.1 μM
  Percent cytotoxicity wrt control: 59.1%
MG-63 Bone; MG-63, 1 μM
  Percent cytotoxicity wrt control: 72.3%
MG-63 Bone; MG-63, 10 μM
  Percent cytotoxicity wrt control: 74%
MG-63 Bone; read-out: IC50 Values, MG-63 Bone, after 48 h of treatment
  IC50: 0.0127 µM
PANC-1 Pancreatic; PANC-1, 0.0001 μM
  Percent cytotoxicity wrt control: 9.5%
PANC-1 Pancreatic; PANC-1, 0.001 μM
  Percent cytotoxicity wrt control: 17%
PANC-1 Pancreatic; PANC-1, 0.01 μM
  Percent cytotoxicity wrt control: 20.5%
PANC-1 Pancreatic; PANC-1, 0.1 μM
  Percent cytotoxicity wrt control: 22.5%
PANC-1 Pancreatic; PANC-1, 1 μM
  Percent cytotoxicity wrt control: 34.4%
PANC-1 Pancreatic; PANC-1, 10 μM
  Percent cytotoxicity wrt control: 36.4%
PANC-1 Pancreatic; read-out: IC50 Values, PANC-1 Pancreatic, after 48 h of treatment
  IC50: > 10 µM
PA-1 Ovary; PA-1, 0.0001 μM
  Percent cytotoxicity wrt control: 0.9%
PA-1 Ovary; PA-1, 0.001 μM
  Percent cytotoxicity wrt control: −5.6%
PA-1 Ovary; PA-1, 0.01 μM
  Percent cytotoxicity wrt control: 7.4%
PA-1 Ovary; PA-1, 0.1 μM
  Percent cytotoxicity wrt control: 4.5%
PA-1 Ovary; PA-1, 1 μM
  Percent cytotoxicity wrt control: 51%
PA-1 Ovary; PA-1, 10 μM
  Percent cytotoxicity wrt control: 72.2%
PA-1 Ovary; read-out: IC50 Values, PA-1 Ovary, after 48 h of treatment
  IC50: 1.54 µM
AGS Stomach; 0.0001 μM
  Percent cytotoxicity wrt control: 7.8%
AGS Stomach; 0.001 μM
  Percent cytotoxicity wrt control: 8.5%
AGS Stomach; 0.01 μM
  Percent cytotoxicity wrt control: 15.9%
AGS Stomach; 0.1 μM
  Percent cytotoxicity wrt control: 37%
AGS Stomach; 1 μM
  Percent cytotoxicity wrt control: 49.9%
AGS Stomach; 10 μM
  Percent cytotoxicity wrt control: 57.2%
AGS Stomach; read-out: IC50 Values, AGS Stomach, after 48 h of treatment
  IC50: 1.72 µM
KB Cervix; 0.0001 μM
  Percent cytotoxicity wrt control: −1.5%
KB Cervix; 0.001 μM
  Percent cytotoxicity wrt control: −2.6%
KB Cervix; 0.01 μM
  Percent cytotoxicity wrt control: −3.9%
KB Cervix; 0.1 μM
  Percent cytotoxicity wrt control: 20.4%
KB Cervix; 1 μM
  Percent cytotoxicity wrt control: 51.2%
KB Cervix; 10 μM
  Percent cytotoxicity wrt control: 54.9%
KB Cervix; read-out: IC50 Values, KB Cervix, after 48 h of treatment
  IC50: 0.88 µM
MDA-MB-231 Breast; MDA-MB-231, 0.0001 μM
  Percent cytotoxicity wrt control: 13.7%
MDA-MB-231 Breast; MDA-MB-231, 0.001 μM
  Percent cytotoxicity wrt control: 15.1%
MDA-MB-231 Breast; MDA-MB-231, 0.01 μM
  Percent cytotoxicity wrt control: 16.2%
MDA-MB-231 Breast; MDA-MB-231, 0.1 μM
  Percent cytotoxicity wrt control: 28.1%
MDA-MB-231 Breast; MDA-MB-231, 1 μM
  Percent cytotoxicity wrt control: 48.5%
MDA-MB-231 Breast; MDA-MB-231, 10 μM
  Percent cytotoxicity wrt control: 66.4%
MDA-MB-231 Breast; read-out: IC50 Values, MDA-MB-231 Breast, after 48 h of treatment
  IC50: 1.35 µM
T24 Bladder; T24, 0.0001 μM
  Percent cytotoxicity wrt control: 9.7%
T24 Bladder; T24, 0.001 μM
  Percent cytotoxicity wrt control: 11.1%
T24 Bladder; T24, 0.01 μM
  Percent cytotoxicity wrt control: 9.1%
T24 Bladder; T24, 0.1 μM
  Percent cytotoxicity wrt control: 10.5%
T24 Bladder; T24, 1 μM
  Percent cytotoxicity wrt control: 43.1%
T24 Bladder; T24, 10 μM
  Percent cytotoxicity wrt control: 68.7%
T24 Bladder; read-out: IC50 Values, T24 Bladder, after 48 h of treatment
  IC50: 2.13 µM
U251 MG Brain; 0.0001 μM
  Percent cytotoxicity wrt control: −9.9%
U251 MG Brain; 0.001 μM
  Percent cytotoxicity wrt control: −13.2%
U251 MG Brain; 0.01 μM
  Percent cytotoxicity wrt control: −14.5%
U251 MG Brain; 0.1 μM
  Percent cytotoxicity wrt control: −5.3%
U251 MG Brain; 1 μM
  Percent cytotoxicity wrt control: 15.9%
U251 MG Brain; 10 μM
  Percent cytotoxicity wrt control: 62.5%
U251 MG Brain; read-out: IC50 Values, U251 MG Brain, after 48 h of treatment
  IC50: 5.95 µM
[2]; 72 h
  IC50 values, PA-1 Cell line: 20.3 µg/mL
[2]; below 10 μM
  cytotoxic effects below 10 μM concentration: does not exhibit major cytotoxic effects
[3]; 72 h
  IC50 values, T-24 cell line: 10.4 µg/mL
[3]; below 10 μM
  cytotoxic effects below 10 μM concentration: does not exhibit major cytotoxic effects
